Measurements taken from patent publication US20260167699A1 (Chugai, published 2026).

target: T1, FcγRIIIa (human, UniProt P08637 17-208); assay: SPR (Biacore);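 further: antibody variants captured on an SPR sensor chip, with FcγRIIIa passed over as analyte in HBS-EP+ buffer at 25 °C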
T1 construct: extracellular domain; also called 3a; FcγRIIIa extracellular domain
T1 sequence (P08637 other isoform, or with tags, fused parts or gaps): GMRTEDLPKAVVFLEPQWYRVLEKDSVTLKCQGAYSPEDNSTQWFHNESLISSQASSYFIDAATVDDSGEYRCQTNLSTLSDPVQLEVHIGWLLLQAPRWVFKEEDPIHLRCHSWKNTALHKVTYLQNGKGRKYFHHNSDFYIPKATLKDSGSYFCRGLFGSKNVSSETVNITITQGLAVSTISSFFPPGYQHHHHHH

Row | Binder | He/Con 3a
1 | GpH7-A5/GpH7-B3 variant P331_06M/GpL16-k0 (antibody, human IgG1, kappa, copies: 1 + 1 + 2) heavy 1: not shown heavy 2: not shown light: DIVMTQSPLSLPVTPGEPASISCQASESLVHSNRNTYLHWYLQKPGQSPQLLIYKVSNRFSGVPDRFSGSGSGTDFTLKISRVEAEDVGVYYCSQNTHVPPTFGQGTKVEIERTVAAPSVFIFPPSDEQLKSGTASVVCLLNNFYPREAKVQWKVDNALQSGNSQESVTEQDSKDSTYSLSSTLTLSKADYEKHKVYACEVTHQGLSSPVTKSFNRGEC | 68.4 % of GpH7-A5/GpH7-B3/GpL16-k0
2 | GpH7-A5/GpH7-B3 variant P331_11K/GpL16-k0 (antibody, human IgG1, kappa, copies: 1 + 1 + 2) heavy 1: not shown heavy 2: not shown light: DIVMTQSPLSLPVTPGEPASISCQASESLVHSNRNTYLHWYLQKPGQSPQLLIYKVSNRFSGVPDRFSGSGSGTDFTLKISRVEAEDVGVYYCSQNTHVPPTFGQGTKVEIERTVAAPSVFIFPPSDEQLKSGTASVVCLLNNFYPREAKVQWKVDNALQSGNSQESVTEQDSKDSTYSLSSTLTLSKADYEKHKVYACEVTHQGLSSPVTKSFNRGEC | 61.8 % of GpH7-A5/GpH7-B3/GpL16-k0
3 | GpH7-A5/GpH7-B3 variant Q295_01G/GpL16-k0 (antibody, human IgG1, kappa, copies: 1 + 1 + 2) heavy 1: not shown heavy 2: not shown light: DIVMTQSPLSLPVTPGEPASISCQASESLVHSNRNTYLHWYLQKPGQSPQLLIYKVSNRFSGVPDRFSGSGSGTDFTLKISRVEAEDVGVYYCSQNTHVPPTFGQGTKVEIERTVAAPSVFIFPPSDEQLKSGTASVVCLLNNFYPREAKVQWKVDNALQSGNSQESVTEQDSKDSTYSLSSTLTLSKADYEKHKVYACEVTHQGLSSPVTKSFNRGEC | 76.6 % of GpH7-A5/GpH7-B3/GpL16-k0
4 | GpH7-A5/GpH7-B3 variant P331_02A/GpL16-k0 (antibody, human IgG1, kappa, copies: 1 + 1 + 2) heavy 1: not shown heavy 2: not shown light: DIVMTQSPLSLPVTPGEPASISCQASESLVHSNRNTYLHWYLQKPGQSPQLLIYKVSNRFSGVPDRFSGSGSGTDFTLKISRVEAEDVGVYYCSQNTHVPPTFGQGTKVEIERTVAAPSVFIFPPSDEQLKSGTASVVCLLNNFYPREAKVQWKVDNALQSGNSQESVTEQDSKDSTYSLSSTLTLSKADYEKHKVYACEVTHQGLSSPVTKSFNRGEC | 82.5 % of GpH7-A5/GpH7-B3/GpL16-k0
5 | GpH7-A5/GpH7-B3 variant P329_10E/GpL16-k0 (antibody, human IgG1, kappa, copies: 1 + 1 + 2) heavy 1: not shown heavy 2: not shown light: DIVMTQSPLSLPVTPGEPASISCQASESLVHSNRNTYLHWYLQKPGQSPQLLIYKVSNRFSGVPDRFSGSGSGTDFTLKISRVEAEDVGVYYCSQNTHVPPTFGQGTKVEIERTVAAPSVFIFPPSDEQLKSGTASVVCLLNNFYPREAKVQWKVDNALQSGNSQESVTEQDSKDSTYSLSSTLTLSKADYEKHKVYACEVTHQGLSSPVTKSFNRGEC | 52.7 % of GpH7-A5/GpH7-B3/GpL16-k0
6 | GpH7-A5/GpH7-B3 variant P331_03V/GpL16-k0 (antibody, human IgG1, kappa, copies: 1 + 1 + 2) heavy 1: not shown heavy 2: not shown light: DIVMTQSPLSLPVTPGEPASISCQASESLVHSNRNTYLHWYLQKPGQSPQLLIYKVSNRFSGVPDRFSGSGSGTDFTLKISRVEAEDVGVYYCSQNTHVPPTFGQGTKVEIERTVAAPSVFIFPPSDEQLKSGTASVVCLLNNFYPREAKVQWKVDNALQSGNSQESVTEQDSKDSTYSLSSTLTLSKADYEKHKVYACEVTHQGLSSPVTKSFNRGEC | 66.9 % of GpH7-A5/GpH7-B3/GpL16-k0
7 | GpH7-A5/GpH7-B3 variant P329_02A/GpL16-k0 (antibody, human IgG1, kappa, copies: 1 + 1 + 2) heavy 1: not shown heavy 2: not shown light: DIVMTQSPLSLPVTPGEPASISCQASESLVHSNRNTYLHWYLQKPGQSPQLLIYKVSNRFSGVPDRFSGSGSGTDFTLKISRVEAEDVGVYYCSQNTHVPPTFGQGTKVEIERTVAAPSVFIFPPSDEQLKSGTASVVCLLNNFYPREAKVQWKVDNALQSGNSQESVTEQDSKDSTYSLSSTLTLSKADYEKHKVYACEVTHQGLSSPVTKSFNRGEC | 55.2 % of GpH7-A5/GpH7-B3/GpL16-k0
8 | GpH7-A5/GpH7-B3 variant P331_20W/GpL16-k0 (antibody, human IgG1, kappa, copies: 1 + 1 + 2) heavy 1: not shown heavy 2: not shown light: DIVMTQSPLSLPVTPGEPASISCQASESLVHSNRNTYLHWYLQKPGQSPQLLIYKVSNRFSGVPDRFSGSGSGTDFTLKISRVEAEDVGVYYCSQNTHVPPTFGQGTKVEIERTVAAPSVFIFPPSDEQLKSGTASVVCLLNNFYPREAKVQWKVDNALQSGNSQESVTEQDSKDSTYSLSSTLTLSKADYEKHKVYACEVTHQGLSSPVTKSFNRGEC | 71.9 % of GpH7-A5/GpH7-B3/GpL16-k0
9 | GpH7-A5/GpH7-B3 variant P329_09D/GpL16-k0 (antibody, human IgG1, kappa, copies: 1 + 1 + 2) heavy 1: not shown heavy 2: not shown light: DIVMTQSPLSLPVTPGEPASISCQASESLVHSNRNTYLHWYLQKPGQSPQLLIYKVSNRFSGVPDRFSGSGSGTDFTLKISRVEAEDVGVYYCSQNTHVPPTFGQGTKVEIERTVAAPSVFIFPPSDEQLKSGTASVVCLLNNFYPREAKVQWKVDNALQSGNSQESVTEQDSKDSTYSLSSTLTLSKADYEKHKVYACEVTHQGLSSPVTKSFNRGEC | 52.5 % of GpH7-A5/GpH7-B3/GpL16-k0
10 | GpH7-A5/GpH7-B3 variant P331_18N/GpL16-k0 (antibody, human IgG1, kappa, copies: 1 + 1 + 2) heavy 1: not shown heavy 2: not shown light: DIVMTQSPLSLPVTPGEPASISCQASESLVHSNRNTYLHWYLQKPGQSPQLLIYKVSNRFSGVPDRFSGSGSGTDFTLKISRVEAEDVGVYYCSQNTHVPPTFGQGTKVEIERTVAAPSVFIFPPSDEQLKSGTASVVCLLNNFYPREAKVQWKVDNALQSGNSQESVTEQDSKDSTYSLSSTLTLSKADYEKHKVYACEVTHQGLSSPVTKSFNRGEC | 67.1 % of GpH7-A5/GpH7-B3/GpL16-k0
11 | GpH7-A5/GpH7-B3 variant P331_16H/GpL16-k0 (antibody, human IgG1, kappa, copies: 1 + 1 + 2) heavy 1: not shown heavy 2: not shown light: DIVMTQSPLSLPVTPGEPASISCQASESLVHSNRNTYLHWYLQKPGQSPQLLIYKVSNRFSGVPDRFSGSGSGTDFTLKISRVEAEDVGVYYCSQNTHVPPTFGQGTKVEIERTVAAPSVFIFPPSDEQLKSGTASVVCLLNNFYPREAKVQWKVDNALQSGNSQESVTEQDSKDSTYSLSSTLTLSKADYEKHKVYACEVTHQGLSSPVTKSFNRGEC | 73.4 % of GpH7-A5/GpH7-B3/GpL16-k0
12 | GpH7-A5/GpH7-B3 variant Q295_02A/GpL16-k0 (antibody, human IgG1, kappa, copies: 1 + 1 + 2) heavy 1: not shown heavy 2: not shown light: DIVMTQSPLSLPVTPGEPASISCQASESLVHSNRNTYLHWYLQKPGQSPQLLIYKVSNRFSGVPDRFSGSGSGTDFTLKISRVEAEDVGVYYCSQNTHVPPTFGQGTKVEIERTVAAPSVFIFPPSDEQLKSGTASVVCLLNNFYPREAKVQWKVDNALQSGNSQESVTEQDSKDSTYSLSSTLTLSKADYEKHKVYACEVTHQGLSSPVTKSFNRGEC | 111 % of GpH7-A5/GpH7-B3/GpL16-k0
